Data reported in US20260209321A1 (SINGAPORE HEALTH SERVICES PTE, published 2026).

How the values were obtained:
[1] = biological target: human TRPM4 expressed in transfected HEK 293 cells (human, UniProt Q8TD43 1-1214); test: cell-based or functional assay
Peptide-biotin [2] = biological target: T1, Peptide-biotin; test: SPR Biacore 8K, purified IgG Fc-captured, Peptide-biotin analyte, 1:1 fit
T1 construct: also called antigen
Procedure: The affinity of purified antibody binding to Peptide-biotin was individually determined using a Surface Plasmon Resonance (SPR) biosensor, Biacore 8K (GE Healthcare). Antibodies were captured on the sensor chip through Fc capture method. Peptide-biotin was used as the analyte. The data of dissociation (kd) and association (ka) rate constants were obtained using Biacore 8K evaluation software. The equilibrium dissociation constants (KD) were calculated from the ratio of kd over ka.

Peptide-biotin [3] = biological target: T1, Peptide-biotin; test: SPR Biacore 8K affinity ranking; antibody Fc-captured, Peptide-biotin analyte, 1:1 fit
Procedure: For affinity ranking, antibodies were captured on the sensor chip through Fc capture method. Peptide-biotin was used as the analyte. The surface was regenerated before the injection of another antibody. The process was repeated until all antibodies are analyzed. The off-rates of antibodies were obtained from fitting the experimental data locally to 1:1 interaction model using the Biacore 8K evaluation software. The antibodies were ranked by their dissociation rate constants (off-rates, kd). Based on the ranking result, the top 3 clones were selected.
Humanized antibodies were generated by replacing the framework regions (FRs) from mouse M4M antibody with counterparts from human, while maintaining the antibody's complementarity-determining regions (CDRs) binding regions. The antibody binding affinity of the chimeric and humanized antibodies was assessed by surface plasmon resonance (SPR) as shown in Table 1. Antibody clone A1 is the chimeric antibody and antibody clones A2-7 are humanized antibodies. Based on the results obtained from SPR, humanized clone A2 has the strongest SPR signal. For affinity ranking, antibodies were captured on the sensor chip through Fc capture method. Peptide-biotin was used as the analyte. The surface was regenerated before the injection of another antibody. The process was repeated until all antibodies are analyzed. The off-rates of antibodies were obtained from fitting the experimental data locally to 1:1 interaction model using the Biacore 8K evaluation software. The antibodies were ranked by their dissociation rate constants (off-rates, kd). Based on the ranking result, the top humanized clones were selected. […] Bolded and underlined amino acids correspond to the back mutation sites in the framework regions.

human TRPM4 expressed in transfected HEK 293 cells, sequence (Q8TD43 whole entry): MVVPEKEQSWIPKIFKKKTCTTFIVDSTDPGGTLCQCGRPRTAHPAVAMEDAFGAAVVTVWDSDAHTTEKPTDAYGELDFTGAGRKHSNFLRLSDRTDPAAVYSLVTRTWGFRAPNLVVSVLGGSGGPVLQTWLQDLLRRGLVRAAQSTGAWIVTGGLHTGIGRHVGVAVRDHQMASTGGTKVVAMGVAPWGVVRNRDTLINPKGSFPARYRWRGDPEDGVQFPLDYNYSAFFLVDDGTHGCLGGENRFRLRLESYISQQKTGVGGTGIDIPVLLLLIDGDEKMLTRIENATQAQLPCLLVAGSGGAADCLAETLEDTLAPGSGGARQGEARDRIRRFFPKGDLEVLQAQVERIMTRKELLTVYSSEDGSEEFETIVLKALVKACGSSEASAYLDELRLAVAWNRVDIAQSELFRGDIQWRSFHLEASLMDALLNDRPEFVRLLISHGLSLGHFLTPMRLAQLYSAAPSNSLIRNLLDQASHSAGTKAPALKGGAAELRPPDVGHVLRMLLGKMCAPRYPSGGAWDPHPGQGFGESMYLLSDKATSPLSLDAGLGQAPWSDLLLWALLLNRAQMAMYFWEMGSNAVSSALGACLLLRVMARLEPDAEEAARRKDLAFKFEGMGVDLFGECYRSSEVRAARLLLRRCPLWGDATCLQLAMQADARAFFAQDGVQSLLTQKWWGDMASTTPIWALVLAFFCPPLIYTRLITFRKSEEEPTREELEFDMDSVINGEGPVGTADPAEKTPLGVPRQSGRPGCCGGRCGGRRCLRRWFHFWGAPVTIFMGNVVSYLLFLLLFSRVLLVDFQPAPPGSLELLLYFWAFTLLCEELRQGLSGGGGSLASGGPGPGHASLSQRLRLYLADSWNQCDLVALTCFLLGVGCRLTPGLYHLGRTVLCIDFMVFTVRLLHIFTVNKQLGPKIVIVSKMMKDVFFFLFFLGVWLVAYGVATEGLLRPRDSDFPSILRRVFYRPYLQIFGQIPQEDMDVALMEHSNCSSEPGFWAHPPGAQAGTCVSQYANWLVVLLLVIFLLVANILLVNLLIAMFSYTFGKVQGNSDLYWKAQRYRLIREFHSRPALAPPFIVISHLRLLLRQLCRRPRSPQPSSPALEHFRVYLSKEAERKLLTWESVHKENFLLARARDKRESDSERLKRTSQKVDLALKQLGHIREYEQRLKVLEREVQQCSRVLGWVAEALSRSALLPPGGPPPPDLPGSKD

Kd (Peptide-biotin [2]): 3.16 nM
koff (Peptide-biotin [2]): 0.000605 s⁻¹
kon (Peptide-biotin [2]): 191000 M⁻¹ s⁻¹
Kd (Peptide-biotin [3]): 6.66 nM
koff (Peptide-biotin [3]): 0.00166 s⁻¹
kon (Peptide-biotin [3]): 249000 M⁻¹ s⁻¹
B1: humanized anti-TRPM4 antibody clone A2 (VH1 + VL1) (antibody, human IgG1, kappa, V domains shown)
VH: QVQLQESGPGLVKPSQTLSLTCTVSGYSITSDYAWNWIRQHPGKGLEWIGYLSYSGVTSYNPSLKGRVTISVDTSKNQFSLKLSSVTAADTAVYYCARKGTYYRYEGSYWYFDVWGQGTTVTVSS
VL: DIQMTQSPSSLSASVGDRVTITCHANQNIDVWLSWYQQKPGKAPKLLIYKTSNLHTGVPSRFSGSGSGTDFTFTISSLQPEDIATYYCQQGQSYPLTFGGGTKLEIKR
notes: also called VH1 + VL1 (A2)
IC50 of dose-dependent inhibition of hypoxia-induced TRPM4 current increase (whole-cell patch clamp) [1]: 1.23 µg/mL
